Legend:
[1] = biological target: T1, human hepcidin-25 (L-peptide) (Homo sapiens) (UniProt P81172); experiment: SPR; details: L-RNA, 37 C
T1 sequence: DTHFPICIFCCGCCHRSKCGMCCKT

[2] = biological target: T2, biotinylated human D-hepcidin-25 (mirror-image peptide) (Homo sapiens) (UniProt P81172); experiment: SPR; details: 37 C, 1 mM Mg, 1 mM Ca
T2 sequence: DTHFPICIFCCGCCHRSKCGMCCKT

[3] = 5'-40 kDa PEG, 1 mM Mg, 1 mM Ca

| Sequence | Kd [1, 3] | Kd ([1]; 1 mM Mg, 1 mM Ca) | further results |
| --- | --- | --- | --- |
| GCGCCGUAUGGGAUUAAGUAAAUGAGGAGUUGGAGGAAGGGCGC [238-D4-008-5'-PEG (NOX-H94)] | 0.64 nM |  |  |
| GCACUCGUAAAGUAGAGGGACCCAGUCCGGCGUGAUAGUGCCGAGUGC [223-C5-001-5'-PEG] | 4.44 nM |  |  |
| CGUGUGUAAAGUAGAGGACAAUUGUCGGCGUGAUAGUGCCACACG [229-B1-001 (D-RNA)] |  |  | Kd [2]: 0.5 nM |
| AGCGUGUCGUAUGGGAUUAAGUAAAUGAGGAGUUGGAGGAAGGGCAUGCU [238-D4-001 (L-RNA)] |  | 0.51 nM |  |
| CGUGUGUAAAGUAGAGGACAAUUGUCGGCGUGAUAGUGCCACACG [229-B1-001 (L-RNA)] |  |  | Kd ([1]; data not shown): 1.25 nM |
| GGCCGGACAGCCGGGGGACACCAUAUACAGACUACGAUACGGCC [238-C4-006-5'-PEG] | 0.76 nM |  |  |
| GCACUCGUAAAGUAGAGGGACCCAGUCCGGCGUGAUAGUGCCGAGUGC [223-C5-001 (D-RNA)] |  |  | Kd [2]: 1.2 nM |
| AGGCUCGGACAGCCGGGGGACACCAUAUACAGACUACGAUACGGGCCU [238-C4-001 (L-RNA)] |  | 0.9 nM |  |
| GCUGUGUAAAGUAGAGGACAAUUGUCGGCGUGAUAGUGCCACAGC [229-B1-002-5'-PEG] | 1.92 nM |  |  |
| GCGCGCGUAUGGGAUUAAGUAAAUGAGGAGUUGGAGGAAGGCGCGC [238-D4-002-5'-PEG] | 0.53 nM |  |  |
| GCACUCGUAAAGUAGAGGGACCCAGUCCGGCGUGAUAGUGCCGAGUGC [223-C5-001 (L-RNA)] |  | 2.7 nM |  |
| GCUGUGUAAAGUAGAGGACAAUUGUCGGCGUGAUAGUGCCACAGC [229-B1-002 (L-RNA)] |  | 1.47 nM |  |

— patent US20160257958
